Measured values taken from PMC6380956 (Biochemistry, 2019).
Each block holds one compound with its values, some of them ahead of it.

Legend:
[1] = molecular target: Methanocaldococcus jannaschii CobT (NaMN:DMB phosphoribosyltransferase) (Methanocaldococcus jannaschii); test: AUC
MjCobT [2] = molecular target: T1, MjCobT (Methanocaldococcus jannaschii, UniProt Q58993); test: isothermal titration calorimetry; type: binding
T1 sequence (Q58993 1-350): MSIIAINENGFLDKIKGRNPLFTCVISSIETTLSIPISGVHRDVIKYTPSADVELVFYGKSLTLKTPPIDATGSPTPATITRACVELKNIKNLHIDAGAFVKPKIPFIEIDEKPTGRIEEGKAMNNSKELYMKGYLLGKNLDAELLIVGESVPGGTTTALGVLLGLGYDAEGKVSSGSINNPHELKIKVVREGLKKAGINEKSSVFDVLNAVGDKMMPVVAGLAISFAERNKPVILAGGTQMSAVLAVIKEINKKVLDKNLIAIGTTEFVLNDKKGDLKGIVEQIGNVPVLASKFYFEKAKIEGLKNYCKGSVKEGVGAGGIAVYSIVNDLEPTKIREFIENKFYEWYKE

MjCobT [3] = molecular target: T1, MjCobT; test: product formation by purified enzyme from NaMN and [[…]-14C]-DMB, TLC; type: biochemical

- percent of the c(s) distribution in the dimer species [1]: 81.3%
- stoichiometry N [1]: 2
Compound: Methanocaldococcus jannaschii CobT (NaMN:DMB phosphoribosyltransferase) (enzyme)

Compound: O=C([O-])c1ccc[n+]([C@@H]2O[C@H](COP(=O)(O)O)[C@@H](O)[C@H]2O)c1 [NaMN]
- Kd (MjCobT [2]): 3.2 µM

Compound: Cc1cc2ncn([C@H]3O[C@H](COP(=O)(O)O)[C@@H](O)[C@H]3O)c2cc1C [α-RP]
- product formation by purified enzyme from NaMN and [2-14C]-DMB, TLC (MjCobT [3]): the amount of MjCobT-generated α-RP is displayed as a function of time for each concentration of NaMN tested
